According to patent US20040151724A1 (published 2004):

Target: T1, MUC1 (UniProt P15941 24-1255, limits assumed)
T1 construct: whole, on cells; also called B16MUC1; C57MUC1
Experiment: flow cytometry of Fab on C57MUC1 cells (murine + MUC1)

T1 sequence (P15941 24-1255 limits assumed): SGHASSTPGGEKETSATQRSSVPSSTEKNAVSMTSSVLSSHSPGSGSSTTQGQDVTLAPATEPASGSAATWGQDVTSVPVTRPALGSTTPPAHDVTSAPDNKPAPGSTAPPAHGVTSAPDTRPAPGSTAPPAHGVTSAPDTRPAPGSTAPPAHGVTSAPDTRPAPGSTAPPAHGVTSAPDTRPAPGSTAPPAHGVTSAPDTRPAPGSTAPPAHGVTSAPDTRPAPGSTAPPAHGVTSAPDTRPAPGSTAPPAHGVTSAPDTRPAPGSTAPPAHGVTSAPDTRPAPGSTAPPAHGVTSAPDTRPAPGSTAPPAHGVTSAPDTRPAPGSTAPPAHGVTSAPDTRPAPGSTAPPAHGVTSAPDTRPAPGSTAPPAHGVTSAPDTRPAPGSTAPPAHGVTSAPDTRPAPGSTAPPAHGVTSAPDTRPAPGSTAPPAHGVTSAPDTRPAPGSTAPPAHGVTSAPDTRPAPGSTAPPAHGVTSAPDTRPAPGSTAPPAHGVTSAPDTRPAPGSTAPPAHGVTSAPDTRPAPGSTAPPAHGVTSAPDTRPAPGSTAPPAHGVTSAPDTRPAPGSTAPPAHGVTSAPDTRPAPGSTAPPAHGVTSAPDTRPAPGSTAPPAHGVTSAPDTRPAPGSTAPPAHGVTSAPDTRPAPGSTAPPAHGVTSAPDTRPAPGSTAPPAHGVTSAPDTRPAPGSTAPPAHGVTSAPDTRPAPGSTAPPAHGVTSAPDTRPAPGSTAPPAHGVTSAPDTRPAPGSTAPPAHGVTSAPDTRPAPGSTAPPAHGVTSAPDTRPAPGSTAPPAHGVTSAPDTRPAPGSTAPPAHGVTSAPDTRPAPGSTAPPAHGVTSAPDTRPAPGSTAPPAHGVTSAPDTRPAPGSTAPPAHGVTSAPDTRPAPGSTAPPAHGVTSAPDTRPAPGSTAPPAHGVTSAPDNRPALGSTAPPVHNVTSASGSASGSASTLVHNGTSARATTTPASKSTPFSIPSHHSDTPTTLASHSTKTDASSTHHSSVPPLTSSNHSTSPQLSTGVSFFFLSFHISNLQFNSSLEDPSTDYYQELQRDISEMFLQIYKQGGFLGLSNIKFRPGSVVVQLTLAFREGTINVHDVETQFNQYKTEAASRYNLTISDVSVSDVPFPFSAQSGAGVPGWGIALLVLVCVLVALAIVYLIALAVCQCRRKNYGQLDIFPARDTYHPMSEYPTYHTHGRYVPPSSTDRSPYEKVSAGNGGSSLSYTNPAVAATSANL

B1: Fab 14.6.20 (Fab, V domains shown)
VH: EVQLVQSGGGLVQPGGSLRLSCTASGFIFNNYAMSWVRQAPGKGLEWVSGISTGGSSTYHADSVKGRFTISRDNFKKTLWLQMNSLTPEDAAVYYCARHANFWNGYLEKGAIDYWGQGTLVTVSS
VL: ELQMTQSPSTLSASVGDRVTITCRASHSVSGWLAWYQQKPGKAPKLLSYEPSSLESGVPSRFSGSGSGTEFTLTISSLQPEDFATYYCQESYRITSLTFGGGTKVETRR
notes: also called Fab clone 14.6.20
binding result: no binding
